Laboratory results: US7261893 (Pfizer, dated 2007)
“And” between values parts separate entries of the source, which are not always exact repeats. Identical values can stand only once.

B1: Myo28 human IgG1 antibody (antibody, V domains shown)
VH: QVTLKESGGGLVQPGGSLRLSCAASGFTFSRYVINWVRQAPGKGLEWVSAISVTGGSTAYADSVRGRFTISRDNSKNTLYLQMNSLRAEDTAVYYCTKGQWERGSYYFDYWGRGTLVTVSS
VL: QSVLTQPPSVSGAPGQRVTISCTGSSSNIGDGYDVHWYQQLPGTAPKLLIYGNSHRPSGVPDRFSGSKSDTSASLAITGLQVEDEADYFCHSYDGSVSGWIFGGGTKLTVLG
B2: Myo22 scFv (scFv)
scFv: EVQLLESGGGLVQPGGSLRLSCAASGFTFSSYAMSWVRQAPGKGLEWVSAISGSGGSTYYADSVKGRFTISRDNSKNTLYLQMNSLRAEDTAVYYCERMGPCTGGSCYDTLGNWGRGTLVTVSSGGGGSGGGGSGGGGSAQSVLTQPPSVSGAPGQRVTISCTGSSSNIGAGYDVHWYQQLPGAAPKLLIRGNGNRPSGVPDRFSVSKSGYSASLAITGLQPADEGVYYCQSYDSSLSGSKVFGQGTKLTVLGAAAHHHHHH
notes: tags from the vector are not described; also called scFv of Myo22
B3: mature human BMP-11 (ligand, UniProt O95390 299-407, looked up)
chain: NLGLDCDEHSSESRCCRYPLTVDFEAFGWDWIIAPKRYKANYCSGQCEYMFMQKYPHTHLVQQANPRGSAGPCCTPTKMSPINMLYFNDKQQIIYGKIPGMVVDRCGCS
notes: mature; also called GDF-11; biotinylated BMP-11
B4: Myo29 human IgG1 antibody (antibody, V domains shown)
VH: QVQLVQSGAEVKKPGASVKVSCKASGYTFTSYYMHWVRQAPGQGLEWMGIINPSGGSTSYAQKFQGRVTMTRDTSTSTVYMELSSLRSEDTAVYYCARDENWGFDPWGQGTLVTVSS
VL: SYELTQPPSVSVSPGQTATITCSGHALGDKFVSWYQQGSGQSPVLVIYDDTQRPSGIPGRFSGSNSGNTATLTISGTQAMDEADYFCQAWDSSFVFGGGTKVTVLG
B5: Myo28 scFv (scFv)
scFv: QVTLKESGGGLVQPGGSLRLSCAASGFTFSRYVINWVRQAPGKGLEWVSAISVTGGSTAYADSVRGRFTISRDNSKNTLYLQMNSLRAEDTAVYYCTKGQWERGSYYFDYWGRGTLVTVSSGGGGSGGGGSGGGGSAQSVLTQPPSVSGAPGQRVTISCTGSSSNIGDGYDVHWYQQLPGTAPKLLIYGNSHRPSGVPDRFSGSKSDTSASLAITGLQVEDEADYFCHSYDGSVSGWIFGGGTKLTVLGAAAHHHHHH
notes: tags from the vector are not described; also called scFv of Myo28
B6: Myo29 scFv (scFv)
scFv: QVQLVQSGAEVKKPGASVKVSCKASGYTFTSYYMHWVRQAPGQGLEWMGIINPSGGSTSYAQKFQGRVTMTRDTSTSTVYMELSSLRSEDTAVYYCARDENWGFDPWGQGTLVTVSSGGGGSGGGGSGGGGSALSYELTQPPSVSVSPGQTATITCSGHALGDKFVSWYQQGSGQSPVLVIYDDTQRPSGIPGRFSGSNSGNTATLTISGTQAMDEADYFCQAWDSSFVFGGGTKVTVLGAAAHHHHHH
notes: tags from the vector are not described; also called scFv of Myo29

How the values were obtained:
[1] = target: T1, mature human GDF-8 (growth and differentiation factor-8) (human, UniProt O14793 267-375); test: cell-based or functional assay
[2] = target: T1, mature human GDF-8 (growth and …); test: inhibition of bioGDF-8 binding to plate-coated ActRIIB-Fc, purified scFv titrated, DELFIA TRF
[3] = target: T2, Recombinant ActRIIB-Fc chimera (R&D Systems, Cat. No. 339-RB/CF) (UniProt Q13705 19-134); test: ELISA, biotinylated ligand titrated on plate-coated ActRIIB-Fc, streptavidin-HRP
T2 construct: Bought reagent, coated on the plate; also called ActRIIB receptor; Fc part of the bought chimera not given
T2 sequence (Q13705 19-134, change not shown): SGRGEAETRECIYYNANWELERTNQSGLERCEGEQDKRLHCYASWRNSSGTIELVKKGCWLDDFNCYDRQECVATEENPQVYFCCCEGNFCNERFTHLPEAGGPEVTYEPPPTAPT

[4] = target: T1, mature human GDF-8 (growth and …); test: inhibition of biotinylated GDF-8 (10 ng/ml) binding to plate-coated ActRIIB-Fc, ELISA, Myo29 preincubated with the ligand
[5] = target: B3; test: inhibition of biotinylated BMP-11 (10 ng/ml) binding to plate-coated ActRIIB-Fc, ELISA, Myo29 preincubated with the ligand

B1
RGA and ActRIIB binding assays (not said which), IC50 [1]: 0.2 to 0.35 nM

B2
IC50 [2]: 60 nM

B3
EC50 [3]: 0.04 µg/mL

B4
pGL3(CAGA)12 reporter gene assay (RGA) in A204 cells, GDF-8 at 20 ng/ml, IC50 [1]: 15 ng/ml to 30 ng/ml (2×) and 0.1 nM to 0.2 nM (2×) | IC50 [4]: 0.2 to 0.4 nM | IC50 [5]: 0.2 to 0.4 nM

B5
IC50 [2]: 1.7 nM

B6
IC50 [2]: 2.4 nM
